Molecular target: SARS-CoV-1 (Sino 1-11) RBD, His-tagged (SARS-CoV-1)

## WRAIR-2063 (human IgG1) (antibody)
  IC50 of neutralization of SARS-CoV-1 (Sino 1-11) pseudovirus: 0.095 µg/mL
